Consider five molecules from patent US10183062B2, “Treatment for cancer” (The University of Nottingham, priority 2013, dated 2019).

Data set [1] deals with NC(=O)C1=CN([C@@H]2O[C@H](COP(=O)(O)OP(=O)(O)OC[C@H]3O[C@@H](n4cnc5c(N)ncnc54)[C@H](O)[C@@H]3O)[C@@H](O)[C@H]2O)C=CC1. In words: CB1954 nitroreductase activity, HPLC, purified His-tagged HsoNTR. The class given is biochemical, Haemophilus somnus 129PT. The settings on record: other: 37° C., pH 7.0. The text has this: (§1) Genes encoding homologs of E. coli NfnB and Bacillus amyloliquefaciens YwrO from several bacteria were cloned into an E. coli expression vector for screening (see Methods below). These were the NfnB homolog from Neisseria meningitidis MC58 (‘NmeNTR’, accession number Q9K022), the NfnB homolog from Haemophilus somnus 129PT (‘HsoNTR’, accession number ZP_00122352.1), the NfnB homolog from Burkholderia fungorum LB400 (‘BfuNTR’, accession number ZP_00029570.1), the YwrO homolog from Vibrio cholerae (‘VchYwrO’, accession number Q9KNX3), the YwrO homolog from Rhodobacter sphaeroides (‘RspYwrO’, accession number ZP_00007082.1), and two YwrO homologs from Pseudomonas aeruginosa (‘PaeYwrO1’, accession number Q9HUJ0; and ‘PaeYwrO2’, accession number Q9I4B3).
(§2) For determination of CB1954 nitroreductase kinetic parameters, six-histidine affinity-tagged enzymes were purified from cell lysates purified using a Novagen His-Bind kit in accordance with the manufacturer's instructions.
(§3) CB1954 nitroreductase activity was determined essentially as described by Anlezark (6). Reaction mixtures containing 500 μM NADH or NADPH and a small quantity of enzyme (either crude lysate or purified enzyme) were assembled in pre-warmed (to 37° C.) 100 mM sodium phosphate buffer (pH 7.0), and started with the addition of 100 μM CB1954 and prompt mixing.
(§4) To determine initial reaction rates during preliminary screening of CB1954 nitroreductase candidates, aliquots of the reaction mixtures taken at various times were injected into a Partisphere SCX (100×4.7 mm) HPLC column and eluted isocratically at 2 ml/min with 130 mM NaH2PO4 (pH 5.0). Eluates were continuously monitored at 260 nm and 325 nm, and the absorbance spectra of eluting components recorded using a photodiode array detector. Peaks were identified with reference to standards and/or by their known absorbance spectra (7) and anticipated column retention times as appropriate. Rates were determined based on the decrease in the area under the CB1954 peak over time, normalised to the known starting concentration of 100 μM using the peak from the zero timepoint sample.
(§5) To determine initial reaction rates and CB1954 nitroreduction products in later experiments with purified proteins, peaks were identified as before, and rates were determined based on the increase in the area under the 4-hydroxylamine derivative peak over time, normalised using enzymatically-synthesised 4-hydroxylamine standards.
(§6) NmeNTR and HsoNTR were each affinity-tagged, over-expressed, purified, and the CB1954 nitroreductase activities of the purified proteins characterized using the HPLC assay. The reaction products and kinetic parameters of these enzymes with respect to CB1954 and NADH were determined (Table 1). […]

For data set [2], the system named is NC(=O)c1cc(N2CC2)c([N+](=O)[O-])cc1[N+](=O)[O-]. The data set is described as above. The data set is classed as biochemical, Haemophilus somnus 129PT. The settings on record: pH 7.0; for kcat: 37° C.
Text: as §1, §2, §3, §4, §5, §6

The subject of data set [3] is NC(=O)C1=CN([C@@H]2O[C@H](COP(=O)(O)OP(=O)(O)OC[C@H]3O[C@@H](n4cnc5c(N)ncnc54)[C@H](O)[C@@H]3O)[C@@H](O)[C@H]2O)C=CC1. In words: CB1954 nitroreductase activity, HPLC, purified His-tagged NmeNTR. The data set is classed as biochemical, Neisseria meningitidis MC58. Particulars: other: 37° C., pH 7.0.
Text: as §1, §2, §3, §4, §5
(§7) NmeNTR and HsoNTR were each affinity-tagged, over-expressed, purified, and the CB1954 nitroreductase activities of the purified proteins characterized using the HPLC assay. The reaction products and kinetic parameters of these enzymes with respect to CB1954 and NADH were determined (Table 1). […] Moreover, the kinetic parameters of HsoNTR and NmeNTR differ dramatically from those of E. coli NfnB and other published enzymes (Table 1). […] NmeNTR would therefore approach saturation with CB1954 in a therapeutic regime using the maximum clinically-recommended dose, so the prodrug would be efficiently activated and high levels of tumour-specific cytotoxicity achieved.

Data set [4] relates to NC(=O)c1cc(N2CC2)c([N+](=O)[O-])cc1[N+](=O)[O-]. Described as above. The data set is classed as biochemical, Neisseria meningitidis MC58. The settings on record: pH 7.0.
Text: as §1, §2, §3, §4, §5, §7

Data set [5] has as its system E. coli NfnB nitroreductase, wild type. The settings on record: Knox et al., 1992; read-out: Km^NADH; cited from earlier work.
Data set [6] deals with E. coli NfnB variant N71S/F124K. Particulars: Searle et al., 2004 and Race et al., 2007; read-out: Km^NADH; cited from earlier work.
The test system of data set [7] is BliNTR, NTR from Bacillus licheniformis. Particulars: Emptage et al., 2009; read-out: Km^NADH; cited from earlier work.
Data set [8] in a line: CB1954 nitroreductase activity of purified His-tagged proteins (HPLC assay). The class given is biochemical. The procedure: as §2, §3, §5, §7
Data set [9] in a line: Specific menadione reductase activity in lysates of E. coli cells (screen for functional expression). The settings on record: E. coli lysates containing expression plasmid. The class given is biochemical. Here is the method: In an initial screen for functional expression of each of the cloned genes, specific menadione reductase activity was determined in lysates of E. coli cells containing the NfnB or YwrO homolog expression plasmid. Enzymes from these families are expected to be NAD(P)H-dependent quinone reductases regardless of their nitroreductase activity against CB1954, and a photospectrometric menadione reductase assay is available (see Methods below), so this approach provides a convenient means to assess functional expression.
(§8) Lysates of E. coli clones containing pMTL1015-based enzyme expression plasmids were prepared for preliminary characterisation of enzyme activities. […]
Menadione reductase activity was determined by the method of Knox (5). […] Reduction of cytochrome C was recorded by measuring increase in absorbance at 550 nm. Specific activities were calculated using the total protein concentrations of cell lysates, which were determined using the Bradford reagent (Sigma-Aldrich). Aliquots of cell lysates were mixed with 250 μl of Bradford reagent and incubated in the dark at room temperature for 5 min before absorbance was measured at 595 nm. Absorbance values were compared to those obtained using known concentrations of bovine serum albumin.

Data set [10] in a line: Screen for CB1954 nitroreductase activity in E. coli lysates (HPLC). The data set is classed as biochemical. Particulars: 100 μM CB1954. Here is the method: To screen for CB1954 nitroreductase activity of each of the functionally expressed genes, lysates of E. coli cells containing the NfnB or YwrO homolog expression plasmid were added to reaction mixtures containing CB1954 and the concentration of CB1954 was monitored by HPLC (see Methods below). […] Such activity was not observed in the lysates containing VchYwrO, PaeYwrO1 or PaeYwrO2.
as §8, §3
To determine initial reaction rates during preliminary screening of CB1954 nitroreductase candidates, aliquots of the reaction mixtures taken at various times were injected into a Partisphere SCX (100×4.7 mm) HPLC column and eluted isocratically at 2 ml/min with 130 mM NaH2PO4 (pH 5.0). Eluates were continuously monitored at 260 nm and 325 nm, and the absorbance spectra of eluting components recorded using a photodiode array detector. […]

Where [11] appears, read: other: CB1954, cofactor NADPH, 37° C.

Entries after “also recorded” stand apart in the source; their conditions may differ.

As for “HsoNTR, Haemophilus somnus 129PT nitroreductase (NfnB homolog, ZP_00122352.1), wild type, SEQ ID NO: 2 (Histophilus somni)”, the values for the Km in [1] and in data set [2] (other: 37° C.) were 644 µM and 22.03 µM, respectively. For the same molecule, the kcat in [2] (other: CB1954, cofactor NADH) is listed as 3.5 (NADH) S^−1; in data set [2] (other: CB1954, cofactor NADPH), 13.13 (NADPH) S^−1.
With “NmeNTR, Neisseria meningitidis MC58 nitroreductase (NfnB homolog, Q9K022), wild type, SEQ ID NO: 1 (Neisseria meningitidis MC58)”, the Michaelis-Menten constant (Km) in data set [3] came out at 188 µM. Moreover, in [4] (other: 37° C.), the Km came out at 2.47 µM, the kcat is 4.04 (NADH) and the kcat/Km is recorded as 1.636 (NADH). Also, in [4] (setting [11]), the kcat is recorded as 15.23 (NADPH) and the kcat/Km is reported as 6.166 (NADPH).
Take `NC(=O)C1=CN([C@@H]2O[C@H](COP(=O)(O)OP(=O)(O)OC[C@H]3O[C@@H](n4cnc5c(N)ncnc54)[C@H](O)[C@@H]3O)[C@@H](O)[C@H]2O)C=CC1` [NADH]: the Michaelis-Menten constant (Km) in [5] is 6 µM; in data set [6], 5 µM; in data set [7], 820 µM.

B1: HsoNTR: NfnB homolog nitroreductase from Haemophilus somnus 129PT, accession ZP_00122352.1, SEQ ID NO: 2 (protein, listed as Haemophilus somnus)
chain: MTTISKEHVLDSFNRRASTRYYDPNKKISNEDFSYVLEFARLSPSSVGSEPWHFLVIQNPELRAKLKPVSWGMATQIDDASHLVVILAKKNARYDSEFLVQSMKRRGLSGEQIQATKEKYHLFQAEHMKTLENDRTLFDWASKQTYIALANMLTGAALIGIDSCPIEGFNYEKVNQILTDAGVLDSDEWGVSVMATFGYRAKEIKPKSRKSLDEIVTWVK
In the case of B1, the “Kcat/K^CB1954” value in data set [8] (NADH) is recorded as 0.159 (NADH) s^−1μM^−1; in data set [8] (NADPH) it was 0.596 (NADPH) s^−1μM^−1. Moreover, the “specific menadione reductase activity of lysates versus control” value in [9] was “significantly elevated above the control”. In addition, the “CB1954 nitroreductase activity (decrease in CB1954 concentration)” value in [10] was “caused a decrease in CB1954 concentration; also recorded: rapidly consumed”.

B2: NmeNTR: NfnB homolog nitroreductase from Neisseria meningitidis MC58, accession Q9K022, SEQ ID NO: 1 (protein, listed as Neisseria meningitidis)
chain: MTVLSKEQVLSAFKNRKSCRHYDAARKISAEDFQFILELGRLSPSSVGSEPWQFIVVQNPEIRQAIKPFSWGMADALDTASHLVVFLAKKNARSDSPFMLESLKRRGVTEPDAVAKSLARYQAFQADDIKILDDSRALFDWCCRQTYIALANMMTGAAMAGIDSCPVEGFNYAEMERILSGQFGLFDAAEWGVSVAATFGYRVQEIATKARRPLEETVIWA
With B2, in [8], the Michaelis constant (Km) is under 6.3 µM and the “Km^CB1954 relative to the lowest previously reported (NfsA)” value is given as “seven-fold lower”. For the same molecule, the “Kcat/K^CB1954” value in data set [8] (NADH) is listed as 1.636 (NADH) s^−1μM^−1. In [8] (NADPH), the “Kcat/K^CB1954” value was 6.166 (NADPH) s^−1μM^−1. For the same molecule, in data set [9], the “specific menadione reductase activity of lysates versus control” value is on record as “significantly elevated above the control”. Moreover, the “CB1954 nitroreductase activity (decrease in CB1954 concentration)” value in [10] was “caused a decrease in CB1954 concentration; also recorded: rapidly consumed”.
